From patent US6693076
One block for each substance: values may come before it.

How the values were obtained:
[1] = target: 125I-[Threonine59]IGF-I binding sites in adult rat brain sections (level of the cerebellum and brain stem) (rat); test: displacement of 0.01 nM 125I-[Thr59]IGF-I from rat brain sections; competitor at 4 pM
[2] = target: 125I-[Threonine59]IGF-I binding sites in adult rat brain sections (level of the cerebellum and brain stem) (rat); test: displacement of 0.01 nM 125I-[Thr59]IGF-I from rat brain sections; competitor at 400 pM
[3] = target: IGF-I receptor in homogenized adult rat brain tissue (cerebral cortex and cerebellum) (rat) (UniProt P24062); test: displacement of 20 pM 125I-[Thr59]IGF-I from homogenised rat brain tissue; competitor at 100 µM; SD 1.4
Sequence of IGF-I receptor in homogenized adult rat brain tissue (cerebral cortex and cerebellum) (rat) (P24062 31-1370): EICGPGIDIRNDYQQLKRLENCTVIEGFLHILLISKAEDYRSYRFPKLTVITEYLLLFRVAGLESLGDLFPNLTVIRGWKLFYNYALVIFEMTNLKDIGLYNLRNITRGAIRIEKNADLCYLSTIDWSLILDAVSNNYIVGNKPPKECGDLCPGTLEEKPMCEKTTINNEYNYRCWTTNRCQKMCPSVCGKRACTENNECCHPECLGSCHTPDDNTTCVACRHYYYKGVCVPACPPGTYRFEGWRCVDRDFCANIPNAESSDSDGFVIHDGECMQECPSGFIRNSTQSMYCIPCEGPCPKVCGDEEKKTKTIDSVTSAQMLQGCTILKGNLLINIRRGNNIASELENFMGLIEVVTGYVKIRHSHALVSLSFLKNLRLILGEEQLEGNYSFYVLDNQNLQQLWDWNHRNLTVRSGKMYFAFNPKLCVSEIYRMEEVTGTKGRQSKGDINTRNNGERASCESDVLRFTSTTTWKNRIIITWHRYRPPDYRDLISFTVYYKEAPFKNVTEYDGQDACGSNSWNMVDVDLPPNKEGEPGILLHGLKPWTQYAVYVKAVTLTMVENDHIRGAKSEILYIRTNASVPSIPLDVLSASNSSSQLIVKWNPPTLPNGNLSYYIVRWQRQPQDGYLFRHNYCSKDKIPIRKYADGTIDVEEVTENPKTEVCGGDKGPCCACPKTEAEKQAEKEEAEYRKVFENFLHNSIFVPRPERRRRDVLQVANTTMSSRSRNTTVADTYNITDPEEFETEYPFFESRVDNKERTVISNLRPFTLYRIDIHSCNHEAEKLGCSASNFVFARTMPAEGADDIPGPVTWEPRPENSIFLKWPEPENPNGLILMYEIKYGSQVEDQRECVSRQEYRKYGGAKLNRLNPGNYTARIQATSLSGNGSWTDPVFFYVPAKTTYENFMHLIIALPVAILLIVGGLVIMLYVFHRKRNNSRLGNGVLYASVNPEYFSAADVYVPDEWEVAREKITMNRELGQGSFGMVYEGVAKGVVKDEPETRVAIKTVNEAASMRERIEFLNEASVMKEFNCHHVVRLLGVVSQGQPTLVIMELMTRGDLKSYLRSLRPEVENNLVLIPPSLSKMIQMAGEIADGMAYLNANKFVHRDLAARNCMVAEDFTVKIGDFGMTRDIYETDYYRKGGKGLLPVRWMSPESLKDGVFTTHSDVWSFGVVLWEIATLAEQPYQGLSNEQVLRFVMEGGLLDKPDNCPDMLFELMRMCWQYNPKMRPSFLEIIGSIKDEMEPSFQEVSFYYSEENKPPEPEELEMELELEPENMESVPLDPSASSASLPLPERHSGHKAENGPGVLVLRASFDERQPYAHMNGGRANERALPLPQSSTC

[4] = target: IGF-I receptor in homogenized adult rat brain tissue (cerebral cortex and cerebellum) (rat) (UniProt P24062); test: displacement of 20 pM 125I-[Thr59]IGF-I from homogenised rat brain tissue; competitor at 100 µM; SD 20
[5] = target: 125I-[Threonine59]IGF-I binding sites in adult rat brain sections (level of the cerebellum and brain stem) (rat); test: displacement of 0.01 nM 125I-[Thr59]IGF-I from rat brain sections; competitor at 400 nM
[6] = target: 125I-[Threonine59]IGF-I binding sites in adult rat brain sections (level of the cerebellum and brain stem) (rat); test: displacement of 0.01 nM 125I-[Thr59]IGF-I from rat brain sections; competitor at 200 nM
[7] = target: IGF-I receptor in homogenized adult rat brain tissue (cerebral cortex and cerebellum) (rat) (UniProt P24062); test: displacement of 20 pM 125I-[Thr59]IGF-I from homogenised rat brain tissue; competitor at 40 nM; SD 0.7
[8] = target: IGF-I receptor in homogenized adult rat brain tissue (cerebral cortex and cerebellum) (rat) (UniProt P24062); test: displacement of 20 pM 125I-[Thr59]IGF-I from homogenised rat brain tissue; competitor at 1 mM; SD 1.8
[9] = target: IGF-I receptor in homogenized adult rat brain tissue (cerebral cortex and cerebellum) (rat) (UniProt P24062); test: displacement of 20 pM 125I-[Thr59]IGF-I from homogenised rat brain tissue; competitor at 100 µM; SD 6
[10] = target: IGF-I receptor in homogenized adult rat brain tissue (cerebral cortex and cerebellum) (rat) (UniProt P24062); test: displacement of 20 pM 125I-[Thr59]IGF-I from homogenised rat brain tissue; competitor at 100 µM; SD 21

Sequence of IGF-II (Somatomedin-A) (P01344 25-91): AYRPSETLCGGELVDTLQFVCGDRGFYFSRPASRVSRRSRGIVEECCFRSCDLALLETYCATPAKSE

Substance: Human IGF-I (Somatomedin-C) (from UniProt P05019 49-118) (ligand)
percent max. bound [1]: 91%
percent max. bound [2]: 30%

Substance: IGF-I(30-41) (peptide)
percent max. bound [3]: 94%

Substance: IGF-I(62-70) (peptide)
percent max. bound [4]: 83%

Substance: IGF-II (Somatomedin-A) (from UniProt P01344 25-91) (ligand)
percent max. bound [5]: 23%
percent max. bound [6]: 50%
percent max. bound [7]: 92.1%

Substance: IGF-II(54-67) (peptide)
percent max. bound [9]: 94%

Results, then the substance that gave them:

percent max. bound [8]: 92%
Substance: IGF-II(33-40) (peptide)

percent max. bound [10]: 83%
Substance: IGF-II(62-67) (peptide)
